Laboratory results as given in US12447201B2, “Immunogenic compounds for cancer therapy” (priority 2016, dated 2025).

What was measured:
HLA-A*0201 = target: T1, HLA-A*0201 (Homo sapiens, UniProt P04439, D140Y/D185E/D98H/E176V/E277Q/G131W/G231S/I119V/I121R/I166T/I218V/L300P/L318F/N151K/N90K/P208A/P217A/Q86G/Q94H/R138H/R169H/T345S); experiment: Affinity of the peptide to HLA-A*0201 measured on T2 cell line (FACS, anti-HLA-A2 labelling); type: binding; conditions: for binding to HLA-A*0201 / affinity to HLA-A*0201 compared with the peptide 1A9V: Example 3, FIG. 4, T2 cells; for peptide concentration inducing 20% of expression of the HLA-A*0201: T2 cells
T1 construct: human tumoral cell T2 which expresses the HLA-A*0201 molecule, but which is TAP1/2 negative; endogenous in cells; host or cells: T2 cells (human, TAP1/2 negative)
Excerpt: The experimental protocol is similar to the one that was validated for peptides presented by the HLA-A*0201 (Tourdot et al., A general strategy to enhance immunogenicity of low-affinity HLA-A2.1-associated peptides: implication in the identification of cryptic tumor epitopes. Eur J Immunol. 2000 December; 30 (12): 3411-21). Affinity measurement of the peptides is achieved with the human tumoral cell T2 which expresses the HLA-A*0201 molecule, but which is TAP1/2 negative and incapable of presenting endogenous peptides.
(§1) T2 cells (2.10^5 cells per well) are incubated with decreasing concentrations of peptides from 100 μM to 0.1 μM in a AIMV medium supplemented with 100 ng/μl of human β2m at 37° C. for 16 hours. Cells are then washed two times and marked with the anti-HLA-A2 antibody coupled to PE (clone BB7.2, BD Pharmagen).
The analysis is achieved by FACS (Guava Easy Cyte).
(§2) For each peptide concentration, the geometric mean of the labelling associated with the peptide of interest is substracted from background noise and reported as a percentage of the geometric mean of the […] labelling obtained for the reference peptide HIV pol 589-597 at a concentration of 100 μM. The relative affinity is then determined as follows: relative affinity=concentration of each peptide inducing 20% of expression of HLA-A*0201/concentration of the reference peptide inducing 20% of expression of HLA-A*0201. A2. Solubilisation of Peptides
The experimental protocol was similar to the one that was validated for peptides presented by the HLA-A*0201 (Tourdot et al., A general strategy to enhance immunogenicity of low-affinity HLA-A2.1-associated peptides: implication in the identification of cryptic tumor epitopes. Eur J Immunol. 2000 December; 30 (12): 3411-21).
as §1, with “were” for “are”
The analysis was achieved by FACS (Guava Easy Cyte).
as §2, with “was subtracted” for “is substracted”
The experimental protocol, materials and methods correspond to those outlined in Example 3, with the only difference that the above mentioned antigenic peptides were used.

β/A2/DR3 mice = experiment: ELISPOT-IFNγ assay on splenocytes of vaccinated β/A2/DR3 mice; type: in vivo, mouse; conditions: as compared to IL13RA2-H-vaccinated animals (group 2)

| affinity to HLA-A*0201 compared with the peptide 1A9V (HLA-A*0201) | peptide concentration inducing 20% of expression of the HLA-A*0201 (HLA-A*0201) | Sequence | binding to HLA-A*0201 (HLA-A*0201) | T cell responses in the ELISPOT-IFNγ assay after vaccination (β/A2/DR3 mice) |
| --- | --- | --- | --- | --- |
| – | – | CLYTFLIST [IL13RA2-H2, reference compound] | do not bind to or show much lower affinity | – |
| higher affinity | 4.4 µM | FLPFGFILV [IL13RA2-B] | bind strongly | improved T cell responses |
| – | 100 UM | WLPFGFILI [IL13RA2-H, reference compound] | do not bind to or show much lower affinity | – |
| higher affinity | – | YLYTFLIST [IL13RA2-B2] | bind strongly | – |
